Laboratory results published in paper PMC3961692.

Legend:
[1] = biological target: human interleukin-6 (Homo sapiens) (UniProt P05231); assay: solution affinity (radiolabel, ZORBAX resin capture); settings: SB17T: 40 mM HEPES pH 7.5, 102 mM NaCl, 5 mM KCl, 5 mM MgCl2, 1 mM EDTA, 0.05% Tween 20, 37 C
[2] = biological target: human interleukin-6 (Homo sapiens) (UniProt P05231); assay: SPR; settings: 2'-OMe at C3,G6,A16,A19,C20,C28; Bn-dU9 to Pe-dU; Bn-dU12 to Nap-dU; other dT Bn-dU; SB17T: 40 mM HEPES pH 7.5, 102 mM NaCl, 5 mM KCl, 5 mM MgCl2, 1 mM EDTA, 0.05% Tween 20, 37 C

Sequence of human interleukin-6 (Homo sapiens) (P05231 30-212): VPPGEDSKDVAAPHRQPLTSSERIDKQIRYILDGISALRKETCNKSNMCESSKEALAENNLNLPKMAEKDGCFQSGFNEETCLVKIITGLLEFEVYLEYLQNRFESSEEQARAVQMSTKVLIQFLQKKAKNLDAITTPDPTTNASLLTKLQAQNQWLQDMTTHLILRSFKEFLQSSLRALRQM

“GGCAGGUUUGGUAUUAACACGUUAAGUCGUGG [SL1023]” was tested, and the Kd ([1]; Bn-dU replaces dT) was 1 nM.
“GGGGUUAUGUAGCGAGUGCGUAAGGCGGUGGGCGAGGGA [SL1030]” gave a binding signal (fold weaker than SL1032) ([1]; Nap-dU replaces dT) of 10.
For “GGCAGGUUUGGUAUUAACACGUUAAGUCGUGG [SL1025]”, the Kd ([1]; 2'-OMe at C3,G6,A16,A19,C20,C28, Bn-dU9 to Pe-dU, Bn-dU12 to Nap-dU, other dT Bn-dU) was 0.16 nM and the Kd [2] was 0.23 nM.
